Measurements from PMC3948368.

Molecular target: EGFRvIII (on U87-EGFRvIII cells) del30-297 (UniProt P00533)
Experiment: cell ELISA
Settings: apparent Kd, fixed U87-EGFRvIII cells, 3% BSA in PBST block (PBS, 0.01% Tween 20, pH 7.4), 37 C 40 min, SELEX binding buffer: PBS, 5 mM MgCl2, glucose, yeast tRNA, salmon …

Sequence | Kd
ATCCAGAGTGACGCAGCATGAATCTTTTCTTTTGGTTTTGATATTTATAGTTGGTGAATGGACACGGTGGCTTAGT [U8] | 4.35 nM
ATCCAGAGTGACGCAGCATTTTGACGCTTTATCCTTTTCTTATGGCGGGATAGTTTCGTGGACACGGTGGCTTAGT [U2] | 3.37 nM
